# Laboratory results from publication PMC11093360.
# Tests used:
# M2trunk(1–228) (human) = M2trunk(1–228) (human) (UniProt P08172)
# M2trunk(1–283) (human) = M2trunk(1–283) (human) (UniProt P08172)
Bmax of [3H]NMS binding sites in COS-7 cells cotransfected with both fragments (M2trunk(1–228) alone: N.B.) (M2trunk(1–228) (human)) [fmol/mg],Maximum inhibition of forskolin stimulated cAMP accumulation (%) by carbachol in COS-7 cells cotransfected with both fragments (M2trunk(1–228) (human)) [%],Bmax of [3H]NMS binding sites in COS-7 cells cotransfected with both fragments (M2trunk(1–283) alone: N.B.) (M2trunk(1–283) (human)) [fmol/mg],Maximum inhibition of forskolin stimulated cAMP accumulation (%) by carbachol in COS-7 cells cotransfected with both fragments (M2trunk(1–283) (human)) [%],Substance
70,29,,,M2tail(368–466) (from UniProt P08172 368-466) (domain or fragment)
,,480,37,M2tail(M-281-466) (from UniProt P08172 281-466) (domain or fragment)
